Test results published in patent publication US10766960 (dated 2020).

T1: FcgRIa (human, UniProt P12314)
T1 chain: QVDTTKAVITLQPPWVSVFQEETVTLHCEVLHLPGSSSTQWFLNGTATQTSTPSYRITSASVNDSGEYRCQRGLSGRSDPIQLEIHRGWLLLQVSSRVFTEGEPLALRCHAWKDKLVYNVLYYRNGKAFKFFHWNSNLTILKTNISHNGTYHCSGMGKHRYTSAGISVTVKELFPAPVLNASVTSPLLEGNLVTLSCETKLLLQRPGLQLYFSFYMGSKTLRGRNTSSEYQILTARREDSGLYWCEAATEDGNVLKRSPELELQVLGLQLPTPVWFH

T2: FcgRIIa R (human, UniProt P12318)
T2 chain: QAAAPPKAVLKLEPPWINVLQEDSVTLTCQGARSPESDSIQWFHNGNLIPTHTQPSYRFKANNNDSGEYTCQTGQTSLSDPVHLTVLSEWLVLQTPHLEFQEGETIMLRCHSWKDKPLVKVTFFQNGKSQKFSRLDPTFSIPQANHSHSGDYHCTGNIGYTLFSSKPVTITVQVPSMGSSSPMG

T3: FcgRIIa H (human, UniProt P12318)
T3 chain: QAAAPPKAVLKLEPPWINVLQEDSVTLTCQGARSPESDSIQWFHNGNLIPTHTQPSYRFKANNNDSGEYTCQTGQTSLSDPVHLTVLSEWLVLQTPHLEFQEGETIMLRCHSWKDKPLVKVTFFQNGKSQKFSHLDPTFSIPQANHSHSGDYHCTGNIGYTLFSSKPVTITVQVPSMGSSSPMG

T4: FcgRIIb (human, UniProt P31994)
T4 chain: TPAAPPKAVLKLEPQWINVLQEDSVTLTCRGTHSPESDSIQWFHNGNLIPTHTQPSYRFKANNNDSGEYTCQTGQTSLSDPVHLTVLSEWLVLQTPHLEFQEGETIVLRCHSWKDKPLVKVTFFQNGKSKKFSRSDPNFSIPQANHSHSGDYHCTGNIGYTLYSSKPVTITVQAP


What was measured:
Experiment in all cases: SPR
[1] = target: FcgRIIIa F (human, UniProt P08637)
[2] = target: T1, FcgRIa
[3] = target: T2, FcgRIIa R
[4] = target: T3, FcgRIIa H
[5] = target: T4, FcgRIIb
[6] = target: FcgRIIIa V (human, UniProt P08637)
Chain of FcgRIIIa V (P08637 17-208 F176V): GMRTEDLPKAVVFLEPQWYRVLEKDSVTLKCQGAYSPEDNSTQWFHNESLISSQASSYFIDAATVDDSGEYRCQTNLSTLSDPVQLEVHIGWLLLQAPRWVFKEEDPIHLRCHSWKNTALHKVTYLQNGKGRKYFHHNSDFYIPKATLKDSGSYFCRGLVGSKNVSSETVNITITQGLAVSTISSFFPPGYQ

Chain of FcgRIIIa F (P08637 17-208): as the sequence (P08637 17-208 F176V) above, with V160F counted along it

Row | Kd [1] [nM] | Kd [2] [nM] | Kd [3] [nM] | Kd [4] [nM] | Kd [5] [nM] | Kd [6] [nM] | Binder
1 | 3.4 | 0.12 | 230 | 65 | 1000 | 1.1 | H240-FA020/H240-FB083/L73-k0 (antibody) chain 1: QDQLVQSGAEVKKPGASVKVSCKASGFNIKDTYIQWVRQAPGQGLEWMGRIDPLRKQTKYREKFEGRVTITADTSTNTAYMELSSLRSEDTAVYYCVRSGREFDYWGQGTLVTVSSASTKGPSVFPLAPSSKSTSGGTAALGCLVKDYFPEPVTVSWNSGALTSGVHTFPAVLQSSGLYSLSSVVTVPSSSLGTKTYTCNVNHKPSNTKVDKKVEPKSCDKTHTCPPCPAPEYYWGPSVFLFPPKPKDTLMISRTPEVTCVVVDVSDEEPEVKFNWYVDGVEVHNAKTKPREEQYNATYRVVSVLTVLHQDWLNGKEYKCKVSNKALPAPIEKTISKAKGQPREPQVYTLPPSRKEKTKNQVSLTCLVKGFYPSDIAVEWESNGQPENNYKTTPPVLDSDGSFFLYSKLTVDKSRWQQGNVFSCSVMHEALHNRYTQKSLSLSP chain 2: QDQLVQSGAEVKKPGASVKVSCKASGFNIKDTYIQWVRQAPGQGLEWMGRIDPLRKQTKYREKFEGRVTITADTSTNTAYMELSSLRSEDTAVYYCVRSGREFDYWGQGTLVTVSSASTKGPSVFPLAPSSKSTSESTAALGCLVEDYFPEPVTVSWNSGALTSGVHTFPAVLQSSGLYSLSSVVTVPSSNFGTQTYTCNVDHKPSNTKVDKTVEPKSCDKTHTCPPCPAPELLGGPSVFLFPPKPKDTLMISRTPEVTCVVVDVSHEEPEVQFNWYVDGVEVHNAETKPREEQYNSTYRVVSVLTVLHQDWLNGKEYKCKVSNDALPMPIEETISKAKGQPREPQVYTLPPSREEMTKNQVSLTCLVKGFYPSDIAVEWESNGQPENNYKTTPPVLDSDGSFFLYSKLTVDKSRWQQGNVFSCSVMHEALHNHYTQESLSLSP chain 3: DIQMTQSPSSLSASVGDRVTITCRASQDIHKYIAWYQQKPGQAPRLLIQYTSTLQPGVPSRFSGSGSGTDYTFTISSLQPEDIATYYCLQYEQLRTFGGGTKVEIKRTVAAPSVFIFPPSDEQLKSGTASVVCLLNNFYPREAKVQWKVDNALQSGNSQESVTEQDSKDSTYSLSSTLTLSKADYEKHKVYACEVTHQGLSSPVTKSFNRGEC
2 | 3.3 | 0.033 | 230 | 69 | 1300 | 1.3 | H240-FA021/H240-FB084/L73-k0 (antibody) chain 1: QDQLVQSGAEVKKPGASVKVSCKASGFNIKDTYIQWVRQAPGQGLEWMGRIDPLRKQTKYREKFEGRVTITADTSTNTAYMELSSLRSEDTAVYYCVRSGREFDYWGQGTLVTVSSASTKGPSVFPLAPSSKSTSGGTAALGCLVKDYFPEPVTVSWNSGALTSGVHTFPAVLQSSGLYSLSSVVTVPSSSLGTKTYTCNVNHKPSNTKVDKKVEPKSCDKTHTCPPCPAPEYYWGPSVFLFPPKPKDTLMISRTPEVTCVVVDVSDEEPEVKFNWYVDGVEVHNAKTKPREEQYNATYRVVSVLTVLHQDWLNGKEYKCKVSNKALPAPIEKTISKAKGQPREPQVYTLPPSRKEKTKNQVSLTCLVKGFYPSDIAVEWESNGQPENNYKTTPPKLDSDGSFFLYSKLTVDKSRWQQGNVFSCSVMHEALHNRYTQKSLSLSP chain 2: QDQLVQSGAEVKKPGASVKVSCKASGFNIKDTYIQWVRQAPGQGLEWMGRIDPLRKQTKYREKFEGRVTITADTSTNTAYMELSSLRSEDTAVYYCVRSGREFDYWGQGTLVTVSSASTKGPSVFPLAPSSKSTSESTAALGCLVEDYFPEPVTVSWNSGALTSGVHTFPAVLQSSGLYSLSSVVTVPSSNFGTQTYTCNVDHKPSNTKVDKTVEPKSCDKTHTCPPCPAPELLGGPSVFLFPPKPKDTLMISRTPEVTCVVVDVSHEEPEVQFNWYVDGVEVHNAETKPREEQYNSTYRVVSVLTVLHQDWLNGKEYKCKVSNDALPMPIEETISKAKGQPREPQVYTLPPSREEMTKNQVSLTCLVKGFYPSDIAVEWESEGQPENNYKTTPPVLDSDGSFFLYSKLTVDKSRWQQGNVFSCSVMHEALHNHYTQESLSLSP chain 3: DIQMTQSPSSLSASVGDRVTITCRASQDIHKYIAWYQQKPGQAPRLLIQYTSTLQPGVPSRFSGSGSGTDYTFTISSLQPEDIATYYCLQYEQLRTFGGGTKVEIKRTVAAPSVFIFPPSDEQLKSGTASVVCLLNNFYPREAKVQWKVDNALQSGNSQESVTEQDSKDSTYSLSSTLTLSKADYEKHKVYACEVTHQGLSSPVTKSFNRGEC
3 | 4.3 | 0.17 | 250 | 69 | 1300 | 1.1 | H240-FA009/H240-FB001/L73-k0 (antibody) chain 1: QDQLVQSGAEVKKPGASVKVSCKASGFNIKDTYIQWVRQAPGQGLEWMGRIDPLRKQTKYREKFEGRVTITADTSTNTAYMELSSLRSEDTAVYYCVRSGREFDYWGQGTLVTVSSASTKGPSVFPLAPSSKSTSGGTAALGCLVKDYFPEPVTVSWNSGALTSGVHTFPAVLQSSGLYSLSSVVTVPSSSLGTKTYICNVNHKPSNTKVDKKVEPKSCDKTHTCPPCPAPEYYWGPSVFLFPPKPKDTLMISRTPEVTCVVVDVSDEEPEVKFNWYVDGVEVHNAKTKPREEQYNATYRVVSVLTVLHQDWLNGKEYKCKVSNKALPAPIEKTISKAKGQPREPQVYTLPPSRKEMTKNQVSLTCLVKGFYPSDIAVEWESNGQPENNYKTTPPVLDSDGSFFLYSKLTVDKSRWQQGNVFSCSVMHEALHNRYTQKSLSLSP chain 2: QDQLVQSGAEVKKPGASVKVSCKASGFNIKDTYIQWVRQAPGQGLEWMGRIDPLRKQTKYREKFEGRVTITADTSTNTAYMELSSLRSEDTAVYYCVRSGREFDYWGQGTLVTVSSASTKGPSVFPLAPSSKSTSGGTAALGCLVKDYFPEPVTVSWNSGALTSGVHTFPAVLQSSGLYSLSSVVTVPSSSLGTQTYICNVNHKPSNTKVDKKVEPKSCDKTHTCPPCPAPELLGGPSVFLFPPKPKDTLMISRTPEVTCVVVDVSHEEPEVQFNWYVDGVEVHNAKTKPREEQYNSTYRVVSVLTVLHQDWLNGKEYKCKVSNDALPMPIEETISKAKGQPREPQVYTLPPSREEMTKNQVSLTCLVKGFYPSDIAVEWESNGQPENNYKTTPPVLDSDGSFFLYSKLTVDKSRWQQGNVFSCSVMHEALHNHYTQESLSLSP chain 3: DIQMTQSPSSLSASVGDRVTITCRASQDIHKYIAWYQQKPGQAPRLLIQYTSTLQPGVPSRFSGSGSGTDYTFTISSLQPEDIATYYCLQYEQLRTFGGGTKVEIKRTVAAPSVFIFPPSDEQLKSGTASVVCLLNNFYPREAKVQWKVDNALQSGNSQESVTEQDSKDSTYSLSSTLTLSKADYEKHKVYACEVTHQGLSSPVTKSFNRGEC
4 | 4.7 | 0.095 | 330 | 110 | 1900 | 1.3 | H240-FA024/H240-FB064/L73-k0 (antibody) chain 1: QDQLVQSGAEVKKPGASVKVSCKASGFNIKDTYIQWVRQAPGQGLEWMGRIDPLRKQTKYREKFEGRVTITADTSTNTAYMELSSLRSEDTAVYYCVRSGREFDYWGQGTLVTVSSASTKGPSVFPLAPSSKSTSGGTAALGCLVKDYFPEPVTVSWNSGALTSGVHTFPAVLQSSGLYSLSSVVTVPSSSLGTKTYTCNVNHKPSNTKVDKKVEPKSCDKTHTCPPCPAPEYYWGPSVFLFPPKPKDTLMISRTPEVTCVVVDVSDEEPKVKFNWYVDGVEVHNAKTKPREEQYNATYRVVSVLTVLHQDWLNGKEYKCKVSNKALPAPIEKTISKAKGQPREPQVYTLPPSRKEKTKNQVSLTCLVKGFYPSDIAVEWESNGQPENNYKTTPPVLDSDGSFFLYSKLTVDKSRWQQGNVFSCSVMHEALHNRYTQKSLSLSP chain 2: QDQLVQSGAEVKKPGASVKVSCKASGFNIKDTYIQWVRQAPGQGLEWMGRIDPLRKQTKYREKFEGRVTITADTSTNTAYMELSSLRSEDTAVYYCVRSGREFDYWGQGTLVTVSSASTKGPSVFPLAPSSKSTSESTAALGCLVKDYFPEPVTVSWNSGALTSGVHTFPAVLQSSGLYSLSSVVTVPSSNFGTQTYTCNVDHKPSNTKVDKTVEPKSCDKTHTCPPCPAPELLGGPSVFLFPPKPKDTLMISRTPEVTCVVVDVSHEEPEVQFNWYVDGVEVHNAKTKPREEQYNSTYRVVSVLTVLHQDWLNGKEYKCKVSNDALPMPIEETISKAKGQPREPQVYTLPPSREEMTKNQVSLTCLVKGFYPSDIAVEWESNGQPENNYKTTPPVLDSDGSFFLYSKLTVDKSRWQQGNVFSCSVMHEALHNHYTQESLSLSP chain 3: DIQMTQSPSSLSASVGDRVTITCRASQDIHKYIAWYQQKPGQAPRLLIQYTSTLQPGVPSRFSGSGSGTDYTFTISSLQPEDIATYYCLQYEQLRTFGGGTKVEIKRTVAAPSVFIFPPSDEQLKSGTASVVCLLNNFYPREAKVQWKVDNALQSGNSQESVTEQDSKDSTYSLSSTLTLSKADYEKHKVYACEVTHQGLSSPVTKSFNRGEC
